From publication PMC8065111 (Nature Communications, 2021)
Values belong to the molecule of their own block, whether it stands above or below them.

Columns and labels:
GST-IQGAP1-DBR (human) = GST-IQGAP1-DBR (human) (UniProt P46940); assay: BLI; Octet RED96; GST-tagged ligands on GST biosensors; analyte 0.5 nM to 5 μM; PBS, 0.002% Tween-20, 0.1 mg/ml BSA; 30 °C; one site-specific binding, saturation curve
DIAPH1 (Homo sapiens) = DIAPH1 (Homo sapiens) (UniProt O60610); assay: BLI; conditions: cited from earlier work
MBP-CLIP170-NT [1] = target: T1, MBP-CLIP170-NT (human); assay: BLI; individual test 1
T1 chain: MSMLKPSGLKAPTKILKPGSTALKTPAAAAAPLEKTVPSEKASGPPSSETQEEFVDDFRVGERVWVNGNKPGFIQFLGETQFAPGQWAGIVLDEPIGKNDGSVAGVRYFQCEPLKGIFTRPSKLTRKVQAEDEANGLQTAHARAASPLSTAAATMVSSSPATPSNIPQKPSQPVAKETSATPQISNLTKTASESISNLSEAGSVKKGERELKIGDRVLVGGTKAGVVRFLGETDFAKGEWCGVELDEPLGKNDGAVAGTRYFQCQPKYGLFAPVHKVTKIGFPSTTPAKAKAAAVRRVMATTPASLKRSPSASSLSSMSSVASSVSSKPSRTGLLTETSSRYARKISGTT

MBP-CLIP170-NT [2] = target: T1, MBP-CLIP170-NT; assay: BLI; individual test 2
His6-DIAPH1-NT = target: T2, His6-DIAPH1-NT (human, UniProt O60610 1-575); assay: pull-down; 0.05 nmol GST-IQGAP1-DBR immobilised on GST beads, first partner equimolar 1 h, then second partner equimolar 1 h; 25 mM HEPES pH 7.5, 250 mM NaCl, 100 mM KCl, 0.5 mM beta-mercaptoethanol, 1 mM PMSF, 0.1% Triton X-100; 4 °C; anti-His6 and anti-MBP blots; conditions: both partners purified
T2 construct: human DIAPH1, N-terminal fragment, residues 1-575 of the 1272-residue protein; plasmid pET30a-DIAPH1-NT(1-575aa); Plasmid was a gift from J. Copeland; also called N-terminal fragment of DIAPH1; DIAPH1 N-terminal regulatory domains; source: E. coli BL21, purified (nickel-Sepharose)
T2 sequence (O60610 1-575): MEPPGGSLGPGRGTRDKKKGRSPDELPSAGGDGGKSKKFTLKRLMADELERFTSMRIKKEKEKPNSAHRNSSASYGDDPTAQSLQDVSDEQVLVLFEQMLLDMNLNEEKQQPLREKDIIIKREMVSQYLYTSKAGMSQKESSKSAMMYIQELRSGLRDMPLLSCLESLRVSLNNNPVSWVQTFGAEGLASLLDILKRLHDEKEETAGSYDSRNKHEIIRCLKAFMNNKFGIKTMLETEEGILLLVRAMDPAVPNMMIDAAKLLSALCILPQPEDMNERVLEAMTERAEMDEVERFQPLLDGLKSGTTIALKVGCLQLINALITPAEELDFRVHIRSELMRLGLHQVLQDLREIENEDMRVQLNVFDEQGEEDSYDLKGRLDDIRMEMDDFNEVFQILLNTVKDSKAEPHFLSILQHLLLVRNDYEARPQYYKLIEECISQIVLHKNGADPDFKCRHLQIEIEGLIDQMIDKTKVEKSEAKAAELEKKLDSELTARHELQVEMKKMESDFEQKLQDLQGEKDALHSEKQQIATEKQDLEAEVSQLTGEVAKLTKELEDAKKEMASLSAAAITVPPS

Sequence of DIAPH1 (Homo sapiens) (O60610 whole entry): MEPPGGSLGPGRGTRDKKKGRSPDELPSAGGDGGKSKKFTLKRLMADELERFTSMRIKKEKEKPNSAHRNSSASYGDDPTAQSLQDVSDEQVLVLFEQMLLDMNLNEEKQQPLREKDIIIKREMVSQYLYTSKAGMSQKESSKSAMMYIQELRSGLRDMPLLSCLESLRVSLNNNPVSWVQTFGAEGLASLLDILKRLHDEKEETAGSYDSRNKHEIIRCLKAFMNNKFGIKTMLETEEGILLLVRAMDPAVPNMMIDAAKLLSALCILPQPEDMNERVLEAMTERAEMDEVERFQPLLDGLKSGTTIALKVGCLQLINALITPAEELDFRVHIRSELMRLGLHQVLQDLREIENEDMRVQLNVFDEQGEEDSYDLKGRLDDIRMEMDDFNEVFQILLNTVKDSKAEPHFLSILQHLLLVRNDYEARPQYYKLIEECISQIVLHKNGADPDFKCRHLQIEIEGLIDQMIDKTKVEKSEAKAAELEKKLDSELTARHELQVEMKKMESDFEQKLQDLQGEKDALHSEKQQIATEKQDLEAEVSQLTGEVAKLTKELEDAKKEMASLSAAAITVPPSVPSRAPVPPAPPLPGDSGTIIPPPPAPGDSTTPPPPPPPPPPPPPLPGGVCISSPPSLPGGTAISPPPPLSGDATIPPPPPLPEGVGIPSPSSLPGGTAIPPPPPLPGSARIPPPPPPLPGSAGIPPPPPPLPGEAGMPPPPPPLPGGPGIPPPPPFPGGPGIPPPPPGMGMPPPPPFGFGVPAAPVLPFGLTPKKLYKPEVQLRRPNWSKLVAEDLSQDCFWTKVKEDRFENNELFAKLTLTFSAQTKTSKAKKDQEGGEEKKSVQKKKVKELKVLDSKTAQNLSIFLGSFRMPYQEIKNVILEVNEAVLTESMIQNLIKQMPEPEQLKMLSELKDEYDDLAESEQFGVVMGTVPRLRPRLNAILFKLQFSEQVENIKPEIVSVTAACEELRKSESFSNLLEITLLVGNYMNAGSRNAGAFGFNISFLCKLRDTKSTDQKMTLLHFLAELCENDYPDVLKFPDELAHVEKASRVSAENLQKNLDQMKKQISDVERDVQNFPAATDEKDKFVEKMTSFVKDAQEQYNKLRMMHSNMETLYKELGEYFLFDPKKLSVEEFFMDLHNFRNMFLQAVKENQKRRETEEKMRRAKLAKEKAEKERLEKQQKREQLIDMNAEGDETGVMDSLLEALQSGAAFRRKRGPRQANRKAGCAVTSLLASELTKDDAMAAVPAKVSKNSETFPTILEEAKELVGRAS

Kd (GST-IQGAP1-DBR (human)): 20.5 nM
Molecule: MBP-CLIP170-NT (domain or fragment)

Molecule: IQGAP1 (from UniProt P46940)
Kd (DIAPH1 (Homo sapiens)): 81.2 nM

Kd (MBP-CLIP170-NT [1]): 24.1 nM | Kd (MBP-CLIP170-NT [2]): 15.6 nM | binding result (His6-DIAPH1-NT): binds
B1: GST-IQGAP1-DBR (domain or fragment, human, UniProt P46940 1500-1657, looked up)
chain: KAELVKLQQTYAALNSKATFYGEQVDYYKSYIKTCLDNLASKGKVSKKPREMKGKKSKKISLKYTAARLHEKGVLLEIEDLQVNQFKNVIFEISPTEEVGDFEVKAKFMGVQMETFMLHYQDLLQLQYEGVAVMKLFDRAKVNVNLLIFLLNKKFYGK
notes: cloned into pDEST15; also called IQGAP-DBR; source: E. coli BL21, purified (glutathione beads)
